Test results reported in publication PMC11815680, “Receptor-independent regulation of Gα13 by alpha-1-antitrypsin C-terminal peptides” (The Journal of Biological Chemistry, 2024).

What was measured:
Conditions in all cases: both partners purified
[1] = molecular target: T1, GST-p115-RH(42-252), the RGS box of p115-RhoGEF-RH which lacks the N-terminal extension (human, UniProt Q92888 42-252); assay: pull-down; as a2 but buffer A with 10 μM GDP and mAAT-C_(1-17) added instead of AlF4^-
T1 construct: human p115RhoGEF, residues 42-252 (RGS box, lacks the N-terminal extension); also called p115-RhoGEF-RH domain (42–252); source: E. coli BL21[DE3], purified (glutathione-sepharose 4B, eluted with glutathione, dialysed)
T1 sequence (looked up): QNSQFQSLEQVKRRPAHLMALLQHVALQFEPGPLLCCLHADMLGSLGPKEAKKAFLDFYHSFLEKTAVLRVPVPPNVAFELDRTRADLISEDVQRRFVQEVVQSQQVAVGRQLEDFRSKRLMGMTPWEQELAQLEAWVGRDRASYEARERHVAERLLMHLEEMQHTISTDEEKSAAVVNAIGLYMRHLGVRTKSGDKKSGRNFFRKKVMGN

[2] = molecular target: T2, GST-LARG-RH (human LARG amino acid residues 319-598) (human, UniProt Q9NZN5 319-598); assay: pull-down; as a2 but buffer A with 10 μM GDP and mAAT-C_(3-16) added instead of AlF4^-
T2 construct: human LARG (leukemia-associated RhoGEF), amino acid residues 319-598; also called leukemia-associated RhoGEF RH; source: E. coli BL21[DE3], purified (glutathione-sepharose 4B, eluted with glutathione, dialysed)
T2 sequence (looked up): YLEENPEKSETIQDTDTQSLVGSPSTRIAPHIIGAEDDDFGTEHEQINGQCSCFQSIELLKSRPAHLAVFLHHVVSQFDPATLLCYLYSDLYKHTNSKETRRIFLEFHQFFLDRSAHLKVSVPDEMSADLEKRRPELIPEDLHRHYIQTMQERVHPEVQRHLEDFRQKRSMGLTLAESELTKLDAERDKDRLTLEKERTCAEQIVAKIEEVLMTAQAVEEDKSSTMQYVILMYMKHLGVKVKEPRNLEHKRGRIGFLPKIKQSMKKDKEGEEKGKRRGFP

[3] = molecular target: T3, GST-p115-RH (human p115RhoGEF amino acid residues 1-252, N-terminal region including the RH domain) (human, UniProt Q92888 1-252); assay: pull-down; GST-RH protein on glutathione-Sepharose 4B, untagged Gα13iN (2 μg) in buffer A (20 mM HEPES, 5 mM βME, 1 mM MgCl2, 100 mM NaCl, 10 μM GDP, 0.1% C12E10, pH 8.0) with AlF4^- (30 μM AlCl3, 5 mM MgCl2, 5 mM NaF), 60 min at 4 °C; blot with Gα13 antibodies
T3 construct: human p115RhoGEF, amino acid residues 1-252 (the results once say 1-246); also called p115-RhoGEF-RH; source: E. coli BL21[DE3], purified (glutathione-sepharose 4B, eluted with glutathione, dialysed)
T3 sequence (looked up): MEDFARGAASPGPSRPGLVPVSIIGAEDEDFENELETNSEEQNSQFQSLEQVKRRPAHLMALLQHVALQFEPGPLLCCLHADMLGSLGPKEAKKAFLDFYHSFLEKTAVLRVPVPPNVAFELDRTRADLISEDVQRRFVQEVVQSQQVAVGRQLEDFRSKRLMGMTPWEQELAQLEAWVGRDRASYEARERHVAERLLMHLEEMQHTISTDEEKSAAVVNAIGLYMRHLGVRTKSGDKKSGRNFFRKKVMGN

binding result [1]: binds | binding result [2]: binds | binding result [3]: binds
B1: untagged Gα13iN recombinant protein (GDP-bound) (other, rat | mouse, UniProt P10824 1-28, looked up)
chain: MGCTLSAEDKAAVERSKMIDRNLREDGERLVKILLLGAGESGKSTFLKQMRIIHGQDFDQRAREEFRPTIYSNVIKGMRVLVDAREKLHIPWGDNKNQLHGDKLMAFDTRAPMAAQGMVETRVFLQYLPAIRALWEDSGIQNAYDRRREFQLGESVKYFLDNLDKLGVPDYIPSQQDILLARRPTKGIHEYDFEIKNVPFKMVDVGGQRSERKRWFECFDSVTSILFLVSSSEFDQVLMEDRQTNRLTESLNIFETIVNNRVFSNVSIILFLNKTDLLEEKVQVVSIKDYFLEFEGDPHCLRDVQKFLVECFRGKRRDQQQRPLYHHFTTAINTENIRLVFRDVKDTILHDNLKQLMLQ
notes: N-terminal region (αN helix) of rat Gαi1, amino acid residues 1-28; A few vector residues are likely left after PreScission cleavage of the pGEX-6P-1 product (surmise); also called Gα13iN・GDP; Gα13・GDP; source: E. coli BL21[DE3], purified (glutathione-sepharose 4B, cut off the column with PreScission Protease, dialysed; GDP added to 10 μM)
